Our source for the Cell fusion (IC90) and HIV infectivity (IC90) values is patent US6824783.

Where only a bound is given, the exact number is not on record here.

In the test the target is viral gp41 (HIV-1 transmembrane protein) of HIV-1IIIB (HIV-1 IIIB). Kind of test: cell-based or functional assay.
As for “M41 (maltose binding protein fused to the extracellular domain of HIV-1 gp41, residues 540-686) (from UniProt P03377 540-686)”, the Cell fusion (IC90) is more than 50 µM and the HIV infectivity (IC90) was more than 16 µM.

On to “M41-P (M41 with an Ile to Pro mutation at position 578) (from UniProt P03377 540-686)”, for which the Cell fusion (IC90) worked out at 0.083 µM and the HIV infectivity (IC90) was found to be 0.066 µM.

With “M41-PΔ178 (M41-P from which the DP-178 region has been deleted; gp41 residues 540-642 with Ile578Pro) (from UniProt P03377 540-642)”, the Cell fusion (IC90) was more than 50 µM and the HIV infectivity (IC90) is more than 8 µM.
